Laboratory results reported in the supplement of paper PMC9112550, “Optimization of the antimicrobial peptide Bac7 by deep mutational scanning” (BMC Biology, 2022).
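Further: peptides expressed intracellularly from a pBAD plasmid library in pooled LB shake-flask culture, induced with 0.3% L-arabinose, DNA abundance read by NGS, three biological replicates, DESeq2 with apeglm shrinkage.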

Each sequence was assayed on Escherichia coli TOP10 (assay: shrunken log2 fold change of peptide-encoding DNA abundance (4.5 h post-induction vs induction); higher = less antimicrobial activity (less host growth inhibition)). Details: time post-induction: 4.5 h; library: site-saturation at positions 5, 18, 19, 20.
RRIRARPPRLPRPRPRPQIQPRP was tested, and the “shrunken log2 fold change” value was 0.503. In the case of RRIRPRPPRLPRPRPRPSQKPRP, the “shrunken log2 fold change” value was 0.188. RRIRVRPPRLPRPRPRPEGEPRP was tested, and the “shrunken log2 fold change” value was 0.171. RRIRYRPPRLPRPRPRPGCIPRP was tested, and the “shrunken log2 fold change” value was -0.819. In the case of RRIRFRPPRLPRPRPRPKFQPRP, the “shrunken log2 fold change” value was -0.14. In the case of RRIRLRPPRLPRPRPRPEKDPRP, the “shrunken log2 fold change” value was 0.191. In the case of RRIRRRPPRLPRPRPRPEGAPRP, the “shrunken log2 fold change” value was 1.05. With RRIRDRPPRLPRPRPRPQINPRP the “shrunken log2 fold change” value was -0.0439. With RRIRYRPPRLPRPRPRPTKRPRP the “shrunken log2 fold change” value was -0.028. In the case of RRIRSRPPRLPRPRPRPPAMPRP, the “shrunken log2 fold change” value was 0.344. For RRIRCRPPRLPRPRPRPHNWPRP, the “shrunken log2 fold change” value was -0.00871. For RRIRERPPRLPRPRPRPPPNPRP, the “shrunken log2 fold change” value was 0.451. For RRIRGRPPRLPRPRPRPHESPRP, the “shrunken log2 fold change” value was 0.784. In the case of RRIRPRPPRLPRPRPRPWFIPRP, the “shrunken log2 fold change” value was -0.298. In the case of RRIRFRPPRLPRPRPRPYQQPRP, the “shrunken log2 fold change” value was 0.00163. RRIRLRPPRLPRPRPRPCHDPRP was tested, and the “shrunken log2 fold change” value was -0.116. RRIRARPPRLPRPRPRPIWQPRP was tested, and the “shrunken log2 fold change” value was 0.166. With RRIRGRPPRLPRPRPRPMVQPRP the “shrunken log2 fold change” value was 0.0883. For RRIRLRPPRLPRPRPRPYKCPRP, the “shrunken log2 fold change” value was -0.0222. RRIRSRPPRLPRPRPRPFGMPRP was tested, and the “shrunken log2 fold change” value was -0.25. For RRIRDRPPRLPRPRPRPLHQPRP, the “shrunken log2 fold change” value was 0.302. For RRIRGRPPRLPRPRPRPEKKPRP, the “shrunken log2 fold change” value was 0.102. With RRIRSRPPRLPRPRPRPFPVPRP the “shrunken log2 fold change” value was -0.516. RRIRGRPPRLPRPRPRPFEMPRP was tested, and the “shrunken log2 fold change” value was 0.396. For RRIRRRPPRLPRPRPRPGCDPRP, the “shrunken log2 fold change” value was 0.456. With RRIRDRPPRLPRPRPRPPCWPRP the “shrunken log2 fold change” value was 0.407. With RRIRCRPPRLPRPRPRPRPYPRP the “shrunken log2 fold change” value was -0.0927. With RRIRRRPPRLPRPRPRPLWGPRP the “shrunken log2 fold change” value was 0.0229. For RRIRHRPPRLPRPRPRPFAYPRP, the “shrunken log2 fold change” value was -0.0167. In the case of RRIRRRPPRLPRPRPRPNWGPRP, the “shrunken log2 fold change” value was 0.412. For RRIRNRPPRLPRPRPRPFVDPRP, the “shrunken log2 fold change” value was -0.725. RRIRWRPPRLPRPRPRPIKCPRP was tested, and the “shrunken log2 fold change” value was -0.0271. RRIRVRPPRLPRPRPRPSKYPRP was tested, and the “shrunken log2 fold change” value was -0.783. RRIRIRPPRLPRPRPRPTDRPRP was tested, and the “shrunken log2 fold change” value was -0.192. With RRIRSRPPRLPRPRPRPKRNPRP the “shrunken log2 fold change” value was 0.228. RRIRIRPPRLPRPRPRPQGRPRP was tested, and the “shrunken log2 fold change” value was -0.25. In the case of RRIRYRPPRLPRPRPRPDSGPRP, the “shrunken log2 fold change” value was -0.0811. For RRIRERPPRLPRPRPRPEYHPRP, the “shrunken log2 fold change” value was -0.242. In the case of RRIRSRPPRLPRPRPRPSVVPRP, the “shrunken log2 fold change” value was -0.219. For RRIRGRPPRLPRPRPRPSIEPRP, the “shrunken log2 fold change” value was 0.36. In the case of RRIRGRPPRLPRPRPRPKGNPRP, the “shrunken log2 fold change” value was 0.598. With RRIRNRPPRLPRPRPRPLYKPRP the “shrunken log2 fold change” value was -0.561. In the case of RRIRARPPRLPRPRPRPLPIPRP, the “shrunken log2 fold change” value was 0.205. In the case of RRIRVRPPRLPRPRPRPIPDPRP, the “shrunken log2 fold change” value was -0.0692. RRIRYRPPRLPRPRPRPKVPPRP was tested, and the “shrunken log2 fold change” value was 0.0215. RRIRGRPPRLPRPRPRPQPEPRP was tested, and the “shrunken log2 fold change” value was 0.704. RRIRCRPPRLPRPRPRPQFDPRP was tested, and the “shrunken log2 fold change” value was -0.211. In the case of RRIRSRPPRLPRPRPRPLFEPRP, the “shrunken log2 fold change” value was -0.0159. For RRIRGRPPRLPRPRPRPAYTPRP, the “shrunken log2 fold change” value was -0.166. With RRIRIRPPRLPRPRPRPFNFPRP the “shrunken log2 fold change” value was -0.31. In the case of RRIRMRPPRLPRPRPRPNPVPRP, the “shrunken log2 fold change” value was -0.0385. With RRIRERPPRLPRPRPRPYSGPRP the “shrunken log2 fold change” value was -0.218. For RRIRLRPPRLPRPRPRPWYCPRP, the “shrunken log2 fold change” value was -0.766. In the case of RRIRCRPPRLPRPRPRPWCFPRP, the “shrunken log2 fold change” value was -0.712. For RRIRARPPRLPRPRPRPRFMPRP, the “shrunken log2 fold change” value was 0.0944. RRIRMRPPRLPRPRPRPQVEPRP was tested, and the “shrunken log2 fold change” value was -0.00107. With RRIRGRPPRLPRPRPRPCGRPRP the “shrunken log2 fold change” value was 0.799. RRIRPRPPRLPRPRPRPEASPRP was tested, and the “shrunken log2 fold change” value was 0.0221. In the case of RRIRVRPPRLPRPRPRPRAMPRP, the “shrunken log2 fold change” value was 0.213. With RRIRDRPPRLPRPRPRPQDEPRP the “shrunken log2 fold change” value was -0.166. In the case of RRIRMRPPRLPRPRPRPNHNPRP, the “shrunken log2 fold change” value was -0.687. RRIRQRPPRLPRPRPRPPWCPRP was tested, and the “shrunken log2 fold change” value was 0.0207. In the case of RRIRRRPPRLPRPRPRPRFLPRP, the “shrunken log2 fold change” value was 0.15. With RRIRKRPPRLPRPRPRPRWKPRP the “shrunken log2 fold change” value was 0.702. RRIRARPPRLPRPRPRPGFYPRP was tested, and the “shrunken log2 fold change” value was 0.0241. In the case of RRIRIRPPRLPRPRPRPKQVPRP, the “shrunken log2 fold change” value was -0.118. For RRIRWRPPRLPRPRPRPHWWPRP, the “shrunken log2 fold change” value was 0.629. For RRIRRRPPRLPRPRPRPLKWPRP, the “shrunken log2 fold change” value was -0.107. With RRIRPRPPRLPRPRPRPHEEPRP the “shrunken log2 fold change” value was -0.000777. With RRIRPRPPRLPRPRPRPNASPRP the “shrunken log2 fold change” value was 0.0199. With RRIRYRPPRLPRPRPRPVAWPRP the “shrunken log2 fold change” value was 0.00214. In the case of RRIRFRPPRLPRPRPRPNDCPRP, the “shrunken log2 fold change” value was -0.415. RRIRDRPPRLPRPRPRPRVQPRP was tested, and the “shrunken log2 fold change” value was -0.183. With RRIRMRPPRLPRPRPRPRDWPRP the “shrunken log2 fold change” value was 1.31. With RRIRIRPPRLPRPRPRPNNKPRP the “shrunken log2 fold change” value was -0.85.
